The text below walks through data of patent US20060063149A1 (BIOKIT S A, published 2006).

One test has as its target T1, Tp17-HIS monomers (Treponema pallidum, UniProt P29722 23-156).
T1 construct: also called monomeric Tp17-His; not shown: HIS tag from the pET24a vector
T1 sequence: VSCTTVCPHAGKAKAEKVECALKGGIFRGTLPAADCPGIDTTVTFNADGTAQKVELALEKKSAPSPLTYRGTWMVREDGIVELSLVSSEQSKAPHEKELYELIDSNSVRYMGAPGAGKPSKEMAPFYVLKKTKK
Put plainly: size-exclusion chromatography of complexes formed in vitro. (In general: In gel filtration, larger molecules generally elute earlier.)

The target of a further test is T2, Tp17-HIS dimers (Treponema pallidum, UniProt P29722 23-156).
T2 construct: also called dimeric Tp17-His; not shown: HIS tag from the pET24a vector
T2 sequence: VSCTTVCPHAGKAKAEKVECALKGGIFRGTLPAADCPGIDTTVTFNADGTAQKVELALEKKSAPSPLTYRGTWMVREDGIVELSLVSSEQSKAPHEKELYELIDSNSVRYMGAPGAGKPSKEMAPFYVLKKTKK
The description is as above.

The next test deals with T3, GST-Tp47 fusion protein (Treponema pallidum, UniProt P29723 20-434).
T3 construct: Control protein that shares the GST moiety with GST-Tp17; also called control GST-Tp47 antigen; not shown: GST moiety
T3 sequence: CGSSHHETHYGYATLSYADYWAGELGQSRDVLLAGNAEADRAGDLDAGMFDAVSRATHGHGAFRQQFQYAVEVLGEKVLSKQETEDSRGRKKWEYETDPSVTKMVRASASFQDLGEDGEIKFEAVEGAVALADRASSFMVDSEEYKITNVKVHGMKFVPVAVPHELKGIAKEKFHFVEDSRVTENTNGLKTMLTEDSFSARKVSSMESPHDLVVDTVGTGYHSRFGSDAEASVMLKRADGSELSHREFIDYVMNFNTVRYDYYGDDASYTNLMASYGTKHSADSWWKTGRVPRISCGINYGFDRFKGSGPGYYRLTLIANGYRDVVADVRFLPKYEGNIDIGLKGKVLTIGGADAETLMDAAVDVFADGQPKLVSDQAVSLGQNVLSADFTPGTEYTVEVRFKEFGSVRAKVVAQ
Put plainly: Far Western blot, lysozyme on PVDF membrane.

B1: recombinant human lysozyme (Ventria Bioscience) (enzyme)
chain: KVFERCELARTLKRLGMDGYRGISLANWMCLAKWESGYNTRATNYNAGDRSTDYGIFQINSRYWCNDGKTPGAVNACHLSCSALLQDNIADAVACAKRVVRDPQGIRAWVAWRNRCQNRDVRQYVQGCGV
notes: Bought product (159-53LZ-90P); also called huLYS; LyzR
In the case of B1, the binding result with Tp17-HIS monomers and in the test with Tp17-HIS dimers was “binds” each time.

B2: human breast milk lysozyme (enzyme)
chain: KVFERCELARTLKRLGMDGYRGISLANWMCLAKWESGYNTRATNYNAGDRSTDYGIFQINSRYWCNDGKTPGAVNACHLSCSALLQDNIADAVACAKRVVRDPQGIRAWVAWRNRCQNRDVRQYVQGCGV
notes: also called human lysozyme; huLYS
B2: the binding result with GST-Tp47 fusion protein is given as “no binding”.
